In article PMC8772750:
Like-named read-outs stand apart in the source and are kept apart here.

Tests used:
[1] = biological target: Variegin (Amblyomma variegatum) (UniProt P85800); details: cited from earlier work
[2] = biological target: Variegin (Amblyomma variegatum) (UniProt P85800); details: cited from earlier work; remark: listed apart in the source
human α-thrombin (human) [3] = biological target: human α-thrombin (human) (UniProt P00734)
human α-thrombin (human) [4] = biological target: human α-thrombin (human) (UniProt P00734); experiment: enzyme inhibition kinetics (thrombin amidolytic assay with S-2238); tight-binding assay: inhibitor incubated with 500 pM thrombin for 30 min at 37 °C, then S-2238 added to 50-500 µM; 50 mM Tris-HCl pH 8.4, 150 mM NaCl, 0.1% PEG 6000; Morrison equation for tight-binding competitive inhibitors, apparent Ki' plotted against substrate concentration to obtain Ki

Substance	Ki [1] [pM]	Ki [2] [pM]	IC50 of inhibition of thrombin amidolytic activity (500 pM thrombin, 100 µM S-2238), preincubation 0 min (human α-thrombin (human) [3])	IC50 of inhibition of thrombin amidolytic activity (500 pM thrombin, 100 µM S-2238), preincubation 30 min (human α-thrombin (human) [3])	Ki (human α-thrombin (human) [4]) [pM]
Thrombin (from UniProt P00734)	10.4	14000	–	–	–
recombinant anophelin from Anopheles albimanus (natural protein)	–	–	6.35 nM	6.78 nM	99.4
recombinant haemadin from the leech Haemadipsa sylvestris (natural protein)	–	–	22 pM	33.1 pM	0.237
recombinant hirudin-1 from Hirudo medicinalis (desirudin) (from UniProt P01050 1-65) (natural protein)	–	–	21.5 pM	28 pM	0.217
recombinant variegin from the tick Amblyomma variegatum (from UniProt P85800 1-32) (peptide)	–	–	14.6 nM	18.4 nM	372
